T1: human common cytokine receptor γ-chain (IL-2Rγ) (human, UniProt P31785 23-262, limits assumed)
T1 construct: Recombinant human IL-2Rγ protein, coated (ELISA) or amine-coupled to a CM5 chip (SPR); also called hu IL-2R; CD132
T1 sequence: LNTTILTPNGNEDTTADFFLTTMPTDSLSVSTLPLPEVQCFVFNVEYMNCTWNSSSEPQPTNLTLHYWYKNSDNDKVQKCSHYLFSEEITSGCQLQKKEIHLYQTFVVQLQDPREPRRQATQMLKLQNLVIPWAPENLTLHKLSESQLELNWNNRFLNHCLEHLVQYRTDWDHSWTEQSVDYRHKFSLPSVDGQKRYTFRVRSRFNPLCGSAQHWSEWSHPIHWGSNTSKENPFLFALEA

T2: mouse common cytokine receptor γ-chain (IL-2Rγ) (mouse, UniProt P34902 23-263, limits assumed)
T2 construct: Recombinant mouse IL-2Rγ protein; also called mo IL-2R; mouse IL-2R gamma
T2 sequence (looked up): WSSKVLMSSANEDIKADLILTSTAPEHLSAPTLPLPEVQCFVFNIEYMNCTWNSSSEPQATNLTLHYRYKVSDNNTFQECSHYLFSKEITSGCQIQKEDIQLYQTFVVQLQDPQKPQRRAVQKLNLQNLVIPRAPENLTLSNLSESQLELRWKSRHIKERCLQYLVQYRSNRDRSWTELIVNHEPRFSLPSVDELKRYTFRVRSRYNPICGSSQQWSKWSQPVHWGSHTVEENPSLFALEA

T3: human IL-2Rβ (human, UniProt P14784 27-240, limits assumed)
T3 construct: Recombinant human IL-2Rβ protein, coated on ELISA plates or immobilized on a CM5 chip; also called hu IL-2R; interleukin 2 receptor β-chain
T3 sequence: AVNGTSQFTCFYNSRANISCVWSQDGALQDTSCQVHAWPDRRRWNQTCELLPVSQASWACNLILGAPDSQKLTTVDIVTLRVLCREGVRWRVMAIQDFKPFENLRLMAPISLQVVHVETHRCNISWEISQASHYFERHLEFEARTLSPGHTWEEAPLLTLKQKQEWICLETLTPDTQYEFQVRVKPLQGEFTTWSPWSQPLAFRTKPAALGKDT


Tests used:
[1] = biological target: T1, human common cytokine receptor γ-chain …; assay: P.E. off-rate SPR
Outline: (§1)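 Dissociation rates of nanobody (VHH) periplasmic extracts were measured across a 120s window on an amine-coupled carboxymethyl dextran surface bearing about 2500 RUs of receptor; injection flow 30 uL/min.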

[2] = biological target: T2, mouse common cytokine receptor γ-chain …; assay: P.E. off-rate SPR
Outline: as §1

[3] = biological target: T1, human common cytokine receptor γ-chain …; assay: P.E. binding ELISA
Outline: (§2)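 Read-out: OD at 450 nm, specificity called versus negative controls. Receptor chains (human or mouse IL-2Rα, β, γ) were coated directly overnight at 4° C; 4% Marvel/PBS block 1 h; P.E. at 1:5 dilution in 1% Marvel/PBS incubated 1 h.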

[4] = biological target: T2, mouse common cytokine receptor γ-chain …; assay: P.E. binding ELISA
Outline: as §2

human IL-2Rβ [5] = biological target: T3, human IL-2Rβ; assay: P.E. binding ELISA, human IL-2Rβ coated
Method: In a binding ELISA, human or mouse IL-2Rα, IL-2Rβ and IL-2Rγ proteins were coated directly on maxisorp microtiter plates overnight at 4° C. Free binding sites were blocked using 4% Marvel in PBS for 1 hour. Next, 1:5 dilution of P.E. in 1% Marvel/PBS were added to wells and incubated for 1 hour. […] Binding specificity was determined based on O.D. at 450 nm values compared to negative controls.

human IL-2Rβ [6] = biological target: T3, human IL-2Rβ; assay: SPR off-rate ranking of P.E., human IL-2Rβ immobilized
Method: SPR was performed to determine dissociation rates using Biacore 3000 instrument (GE Healthcare). Briefly, human and mouse IL-2R proteins were immobilized on carboxylmethyl dextran sensor chip (CM5) at approximately 2500 RUs using amine coupling in acetate buffer (GE Healthcare). The VHH-containing P.E. were loaded with a flow rate of 30 uL/min and the off-rates were measured over a 120s period.

Binder	koff [1] [s⁻¹]	koff [2] [s⁻¹]	PE binding ELISA OD [3] [OD450 nm]	PE binding ELISA OD [4] [OD450 nm]	OD450 nm (P.E. binding ELISA) (human IL-2Rβ [5]) [OD450 nm]	koff (human IL-2Rβ [6]) [s⁻¹]
FJ1427_P035MP07C07 (VHH, tested as periplasmic extract; also called Clone nr; 627) VHH: QVQLVESGGGLVQAGGSLRLSCAASGRTLSRYAMGWFRQAPGKEREFVTANSWGGDTYYADSVQGRFTFSRDNAKNTVYLQMNSLQPEDTAVYYCAAAPTSFATTAYSSSNSYAYWGQGTQVTVSS	0.0025	0.105	0.469	0.047		
FJ1427_P035MP07H08 (VHH, tested as periplasmic extract; also called Clone nr; 640) VHH: QVQLVESGGGLVQAGGSLRLSCAASGRTLSRYAMGWFRQAPGKEREFVTANSWGGDTYYADSVQGRFTFSRDNAKNTVYLQMNSLQPEDTAVYYCAAAPTSFATTAYSSSNSYAYWGQGTQVTVSS	0.00303	0.1	0.51	0.047		
FJ1427_P035MP07C08 (VHH, tested as periplasmic extract; also called Clone nr; 635) VHH: QVQLVESGGGLVQAGGSLRLSCAASGRTLSRYAMGWFRQAPGKEREFVTANSWGGDTYYADSVQGRFTFSRDNAKNTVYLQMNSLQPEDTAVYYCAAAPTSFATTAYSSSNSYAYWGQGTQVTVSS	0.00259	0.108	0.528	0.049		
FJ1427_P035MP07E10 (VHH, tested as periplasmic extract; also called Clone nr; 653) VHH: QVQLVESGGGLVQAGGSLRLSCAASGRTLSRYAMGWFRQAPGKEREFVTANSWGGDTYYADSVQGRFTFSRDNAKNTVYLQMNSLQPEDTAVYYCAAAPTSFATTAYSSSNSYAYWGQGTQVTVSS	0.0033	0.107	0.434	0.047		
FJ1427_P035MP07A08 (VHH, tested as periplasmic extract; also called Clone nr; 633) VHH: QVQLVESGGGLVQAGGSLRLSCAASGRTLSRYAMGWFRQAPGKEREFVTANSWGGDTYYADSVQGRFTFSRDNAKNTVYLQMNSLQPEDTAVYYCAAAPTSFATTAYSSSNSYAYWGQGTQVTVSS	0.00255	0.106	0.889	0.049		
FJ1427_P035MP07G07 (VHH, tested as periplasmic extract; also called Clone nr) VHH: QVQLVESGGGLVQAGGSLRLSCAASGRTLSRYAMGWFRQAPGKEREFVTANSWGGDTYYADSVQGRFTFSRDNAKNTVYLQMNSLQPEDTAVYYCAAAPTSFATTAYSSSNSYAYWGQGTQVTVSS	0.00273	0.106	0.479	0.045		
FJ1427_P035MP07C10 (VHH, tested as periplasmic extract; also called Clone nr; 651) VHH: QVQLVESGGGLVQAGGSLRLSCAASGRSLSRDAMGWFRQAPGKEREFVAVMSWGGDTFYTDSVEGRFTFSRDNAKNAVYLEMNDLQPEDTAVYYCAAAPTSFATTAYSSSNSYSYWGRGTQVTVSS	0.00176	0.0132	0.424	0.074		
FJ1427_P035MP06H02 (VHH, Soluble VHH in periplasmic extract (P.E.); also called Clone nr) VHH: QVQLVESGGGLVQAGGSLRLSCAVSGDVFVRYTMAWFRQAPGKEREFVASVTDSGRTTEYVDSVKGRFTVSRDNAKNTAYLQMNNLKPEDTAVYYCAANTDYFQIRSLDLNTWGQGTQVTVSS					0.371	0.000171
FJ1427 P035MP06C09 (VHH, Soluble VHH in periplasmic extract (P.E.); also called Clone nr) VHH: EVQLVESGGGLVQAGGSLRLSCAASGDVFVRYTMAWFRQTPGKEREFVASVTDSGRTTEYVDSVKGRFTVSRDNAKNTVYLQMNNLKPEDTAVYYCAANTDYFQIRSLRANTWGQGTQVTVSS					0.69	0.00101
FJ1427 P035MP06E12 (VHH, Soluble VHH in periplasmic extract (P.E.); also called Clone nr) VHH: QVQLVESGGGLVQAGGSLRLSCAASGDVFVRYTMAWFRQAPGKEREFVASVTDSGRTTDYVDSVKGRFTVSRDNAKNTVYLQMNALKPEDTAVYYCAANTDYFQIKSLDLNTWGQGTQVTVSS					0.271	0.000496
FJ1427 P035MP06E03 (VHH, Soluble VHH in periplasmic extract (P.E.); also called Clone nr) VHH: EVQLVESGGGLVQAGGSLRLSCAASGDVFVRYTMAWFRQAPGKEREFVASVTDSGRTTDYVDSVKGRFTVSRDNAKNTVYLQMNNLKPEDTAVYYCAANTDYFQIKSLDRNTWGQGTQVTVSP					0.57	0.000745
FJ1427 P035MP06G09 (VHH, Soluble VHH in periplasmic extract (P.E.); also called Clone nr; 551) VHH: QVQLVESGGGLVQPGGSLRLSCAASGDVFVRYTMAWFRQAPGKEREFVASVTDSGRTTDYVDSVKGRFTVSRDNAKNTVYLQMNNLKPEDTAVYYCAANTDYFQIKSLDRNTWGQGTQVTVSS					0.202	0.000726
FJ1427_P035MP06A06 (VHH, Soluble VHH in periplasmic extract (P.E.); also called Clone nr) VHH: QLQLVESGGGLVQAGGSLRLACALSGDVFVRYTMAWFRQAPGKEREFVASVTDSGRTTDYVASVQGRFTVSRDNNKNTVYLQMNSLKPEDTAVYYCAANTDYFQIRSLDRNTWGQGTQVTVSS					0.3	0.000631
FJ1427_P035MP06A03 (VHH, Soluble VHH in periplasmic extract (P.E.); also called Clone nr) VHH: EVQLVESGGGLVQAGGSLRLSCAASGDVFVRYTMAWFRQAPGKEREFVASVTDSGRTTDYVDSVKGRFTVSRDNAKNTVYLQMNNLKPEDTAVYYCAANTDYFQIRSLEFNTWGQGTQVTVSS					0.148	0.000882
FJ1427 P035MP06F04 (VHH, Soluble VHH in periplasmic extract (P.E.); also called Clone nr; 510) VHH: QVQLVESGGGLVQAGGSLRLSCAVSGDVFVRYTMAWFRQAPGKEREFVASVTDSGRTTEYVDSVKGRFTVSRDNAKNTVYLQMNSLKPEDTAVYYCAANTDYFQIRSLRANTWGQGTQVTVSS					1.33	0.000487
FJ1427_P035MP06B07 (VHH, Soluble VHH in periplasmic extract (P.E.); also called Clone nr; 530) VHH: EVQLVESGGGLVQAGGSLRLSCAVSGDVFVRYTMAWFRQAPGKEREFVASVTDSGRTTEYVDSVKGRFTVSRDNAKNTAYLQMNNLKPEDTAVYYCAANTDYFQIRSLDLNTWGQGTQVTVSS					1.01	0.000285
FJ1427_P035MP06B05 (VHH, Soluble VHH in periplasmic extract (P.E.); also called Clone nr) VHH: QVQLVESGGGLVQAGGSLRLSCAASGDVFVRYTMAWFRQAPGKEREFVASVTDSGRTTDYVDSVKGRFTVSRDNAKNTVYLQMNNLKPEDTAVYYCAANTDYFQIRSLEFNTWGQGTQVTVSS					0.617	0.000871
FJ1427_P035MP06A05 (VHH, Soluble VHH in periplasmic extract (P.E.); also called Clone nr) VHH: QVQLVESGGGLVQAGGSLRLSCAVSGDVFVRYTMAWFRQAPGKEREFVASVTDSGRTTDYVHSVKGRFTVSRDNAKNTVYLQMNNLKPEDTAVYYCAANTDYFQIKSLDANTWGQGTQVTVSS					0.149	0.00118
FJ1427_P035MP06A09 (VHH, Soluble VHH in periplasmic extract (P.E.); also called Clone nr) VHH: EVQLVESGGGLVQAGGSLRLSCAASGDVFVRYTMAWFRQAPGKEREFVASVTDSGRTTDYVDSVKGRFTVSRDNAKNTVYLQMNNLKPEDTAVYYCAANTDYFQIKSLDRNTWGQGTQVTVSS					0.192	0.000947
FJ1427 P035MP06B06 (VHH, Soluble VHH in periplasmic extract (P.E.); also called Clone nr) VHH: EVQLVESGGGLVQAGGPLRLSCAVSGDVFVRYTMAWFRQAPGKEREFVASVTDSGRTTEYVDSVKGRFTVSRDNAKNTAYLQMNNLKPEDTAVYYCAANTDYFQIRSLDLNTWGQGTQVTVSS					1.42	0.000324
FJ1427 P035MP06D08 (VHH, Soluble VHH in periplasmic extract (P.E.); also called Clone nr; 540) VHH: QVQLVESGGGLVQAGGSLRLSCAVSGDVFVRYTMAWFRQAPGKEREFVASVTDSGRTTEYVDSVKGRFTVSRDNAKNTAYLQMNNLKPEDTAVYYCAANTDYFQIRSLDLNTWGQGTQVTVSL					0.836	0.000209

Source: US20240409645A1 (DUALYX, published 2024)
